According to IntAct's records for PubMed 9499404:

B1: Cell division control protein 53 (Saccharomyces cerevisiae), Q12018 (parent)
chain: MSETLPRSDDLEATWNFIEPGINQILGNEKNQASTSKRVYKILSPTMYMEVYTAIYNYCVNKSRSSGHFSTDSRTGQSTILVGSEIYEKLKNYLKNYILNFKQSNSETFLQFYVKRWKRFTIGAIFLNHAFDYMNRYWVQKERSDGKRHIFDVNTLCLMTWKEVMFDPSKDVLINELLDQVTLGREGQIIQRSNISTAIKSLVALGIDPQDLKKLNLNVYIQVFEKPFLKKTQEYYTQYTNDYLEKHSVTEYIFEAHEIIKREEKAMTIYWDDHTKKPLSMALNKVLITDHIEKLENEFVVLLDARDIEKITSLYALIRRDFTLIPRMASVFENYVKKTGENEISSLLAMHKHNIMKNENANPKKLALMTAHSLSPKDYIKKLLEVHDIFSKIFNESFPDDIPLAKALDNACGAFININEFALPAGSPKSATSKTSEMLAKYSDILLKKATKPEVASDMSDEDIITIFKYLTDKDAFETHYRRLFAKRLIHGTSTSAEDEENIIQRLQAANSMEYTGKITKMFQDIRLSKILEDDFAVALKNEPDYSKAKYPDLQPFVLAENMWPFSYQEVEFKLPKELVPSHEKLKESYSQKHNGRILKWLWPLCRGELKADIGKPGRMPFNFTVTLFQMAILLLYNDADVLTLENIQEGTSLTIQHIAAAMVPFIKFKLIQQVPPGLDALVKPETQFKLSRPYKALKTNINFASGVKNDILQSLSGGGHDNHGNKLGNKRLTEDERIEKELNTERQIFLEACIVRIMKAKRNLPHTTLVNECIAQSHQRFNAKVSMVKRAIDSLIQKGYLQRGDDGESYAYLA
partner: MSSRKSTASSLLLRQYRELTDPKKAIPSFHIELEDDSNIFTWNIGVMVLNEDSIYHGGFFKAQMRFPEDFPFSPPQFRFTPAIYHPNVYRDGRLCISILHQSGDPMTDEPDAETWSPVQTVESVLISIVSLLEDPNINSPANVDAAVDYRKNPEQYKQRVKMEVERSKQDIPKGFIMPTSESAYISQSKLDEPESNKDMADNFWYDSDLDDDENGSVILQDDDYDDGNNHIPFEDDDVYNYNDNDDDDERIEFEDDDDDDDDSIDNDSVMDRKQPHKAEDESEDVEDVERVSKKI

Variants of: B1
Details: with ubc3_yeast CDC34, P14682

R488C was tested. Which “effect of a mutation on the interaction” value did it give?
The value was “disrupting interaction”.
